Laboratory results reported in the Immune Epitope Database (IEDB).

Tests used:
HLA-A*30:02 [1] = test: IEDB peptide-MHC binding, cellular MHC/competitive/fluorescence; ≥ and ≤ were set here for values at or beyond the usual limits of such assays; details: source organism: Vaccinia virus WR
HLA-A*68:02 [2] = test: as above
HLA-A*26:01 = test: as above; details: source organism: Vaccinia virus WR
HLA-A*01:01 = test: as above; details: source organism: Vaccinia virus WR
HLA-A*29:02 = test: as above; details: source organism: Vaccinia virus WR
HLA-A*02:01 [3] = test: as above; details: source organism: Vaccinia virus WR
HLA-A*23:01 [4] = test: IEDB peptide-MHC binding, purified MHC/competitive/radioactivity; ≥ and ≤ were set here for values at or beyond the usual limits of such assays; details: source organism: Vaccinia virus WR
HLA-A*24:02 [5] = test: as above; details: source organism: Vaccinia virus WR
HLA-A*02:02 [6] = test: as above
HLA-A*02:03 [7] = test: as above
HLA-A*02:06 [8] = test: as above
HLA-A*33:01 = test: IEDB peptide-MHC binding, cellular MHC/competitive/fluorescence; ≥ and ≤ were set here for values at or beyond the usual limits of such assays; details: source organism: Mammarenavirus choriomeningitidis
HLA-A*11:01 = test: as above
HLA-A*68:01 [9] = test: as above
HLA-A*31:01 [10] = test: as above
HLA-A*03:01 = test: IEDB peptide-MHC binding, purified MHC/competitive/radioactivity; ≥ and ≤ were set here for values at or beyond the usual limits of such assays
HLA-A*23:01 [11] = test: IEDB peptide-MHC binding, cellular MHC/competitive/fluorescence; ≥ and ≤ were set here for values at or beyond the usual limits of such assays; details: source organism: Vaccinia virus WR
HLA-A*24:02 [12] = test: as above; details: source organism: Vaccinia virus WR
HLA-A*02:02 [13] = test: as above; details: source organism: Vaccinia virus WR
HLA-A*02:06 [14] = test: as above; details: source organism: Vaccinia virus WR
HLA-A*68:02 [15] = test: IEDB peptide-MHC binding, purified MHC/competitive/radioactivity; ≥ and ≤ were set here for values at or beyond the usual limits of such assays
HLA-A*02:01 [16] = test: as above
HLA-A*68:01 [17] = test: as above; details: source organism: Hepatitis B virus
HLA-A*31:01 [18] = test: as above; details: source organism: Hepatitis B virus
HLA-A*02:03 [19] = test: IEDB peptide-MHC binding, cellular MHC/competitive/fluorescence; ≥ and ≤ were set here for values at or beyond the usual limits of such assays; details: source organism: Vaccinia virus WR
HLA-A*30:02 [20] = test: IEDB peptide-MHC binding, purified MHC/competitive/radioactivity; ≥ and ≤ were set here for values at or beyond the usual limits of such assays; details: source organism: Vaccinia virus WR
[21] = source organism: Vaccinia virus WR
[22] = source organism: Mammarenavirus choriomeningitidis
[23] = source organism: Hepatitis B virus

Sequence | IC50 (HLA-A*30:02 [1]) [µM] | IC50 (HLA-A*26:01) [µM] | IC50 (HLA-A*01:01) [µM] | IC50 (HLA-A*29:02) [µM] | IC50 (HLA-A*02:01 [3]) [µM] | IC50 (HLA-A*23:01 [11]) [µM] | IC50 (HLA-A*02:02 [13]) [µM] | IC50 (HLA-A*11:01; [23]) [µM] | IC50 (HLA-A*03:01; [23]) [µM] | IC50 (HLA-A*02:02 [6]; [23]) [µM] | IC50 (HLA-A*02:03 [7]; [23]) [µM] | IC50 (HLA-A*31:01 [18]) [µM] | IC50 (HLA-A*02:06 [8]; [23]) [µM] | further results
FQESFYEDI | ≥ 70 | ≥ 70 | ≥ 70 | 58.2 | 12.9 | – | – | – | – | – | – | – | – | IC50 (HLA-A*68:02 [2]; [21]): 36.8 µM; IC50 (HLA-A*23:01 [4]): 0.263 µM; IC50 (HLA-A*24:02 [5]): 0.44 µM; IC50 (HLA-A*02:02 [6]; [21]): 2.28 µM; IC50 (HLA-A*02:03 [7]; [21]): 4.42 µM; IC50 (HLA-A*02:06 [8]; [21]): 0.185 µM
TLMSIVSSLH | – | – | – | – | – | – | – | – | – | – | – | – | – | IC50 (HLA-A*33:01): ≥ 70 µM; IC50 (HLA-A*11:01; [22]): 9.54 µM; IC50 (HLA-A*68:01 [9]; [22]): 6.62 µM; IC50 (HLA-A*31:01 [10]; [22]): 11.4 µM; IC50 (HLA-A*03:01; [22]): 3.95 µM
SQAKKPEVRI | ≥ 70 | ≥ 70 | ≥ 70 | ≥ 70 | 46.3 | 51.7 | 10.7 | – | – | – | – | – | – | IC50 (HLA-A*24:02 [12]): 32.1 µM; IC50 (HLA-A*02:06 [14]): 5.86 µM; IC50 (HLA-A*68:02 [15]; [21]): 1.67 µM; IC50 (HLA-A*02:03 [7]; [21]): 2.37 µM
VQTIVFIWFI | 13.3 | 16 | 5.13 | 20.3 | – | 32.8 | – | – | – | – | – | – | – | IC50 (HLA-A*24:02 [12]): ≥ 70 µM; IC50 (HLA-A*02:01 [16]; [21]): 0.952 µM
FLFILLLCLI | – | – | – | – | – | – | – | 9.73 | 0.716 | 0.956 | 1.98 | 0.215 | 0.934 | IC50 (HLA-A*68:02 [15]; [23]): 4.5 µM; IC50 (HLA-A*68:01 [17]): 3.69 µM; IC50 (HLA-A*02:01 [16]; [23]): 0.135 µM
LLDYQGMLPV | – | – | – | – | – | – | – | 28.5 | 0.063 | – | – | 4.01 | 0.0026 | IC50 (HLA-A*68:01 [9]; [23]): ≥ 70 µM; IC50 (HLA-A*68:02 [15]; [23]): 0.626 µM
CLIFLLVLL | – | – | – | – | – | – | – | 35.7 | 0.682 | 1.52 | 0.659 | 0.998 | 1.04 | IC50 (HLA-A*68:02 [2]; [23]): 7.11 µM; IC50 (HLA-A*68:01 [9]; [23]): 34.9 µM; IC50 (HLA-A*02:01 [16]; [23]): 0.101 µM
FIIFLFILL | – | – | – | – | – | – | – | 8.98 | 0.953 | 0.627 | 1.05 | 0.45 | 0.9 | IC50 (HLA-A*68:02 [2]; [23]): 10.1 µM; IC50 (HLA-A*68:01 [17]): 3.2 µM
EQRRSTIFDI | ≥ 70 | ≥ 70 | 17.7 | ≥ 70 | 22.5 | 50.8 | 23 | – | – | – | – | – | – | IC50 (HLA-A*24:02 [12]): ≥ 70 µM; IC50 (HLA-A*02:03 [19]): 11.5 µM; IC50 (HLA-A*02:06 [14]): 25.5 µM; IC50 (HLA-A*68:02 [15]; [21]): 1.03 µM
AQQFCQYLI | – | 49 | 32.4 | 45.4 | – | – | – | – | – | – | – | – | – | IC50 (HLA-A*30:02 [20]): 0.748 µM; IC50 (HLA-A*23:01 [4]): 0.085 µM; IC50 (HLA-A*24:02 [5]): 0.313 µM
LQQNNSFII | 40.8 | 11.5 | 40.2 | 18.6 | – | 8.91 | 11.7 | – | – | – | – | – | – | IC50 (HLA-A*68:02 [2]; [21]): 69.8 µM; IC50 (HLA-A*02:03 [19]): 5.17 µM; IC50 (HLA-A*24:02 [5]): 2.36 µM; IC50 (HLA-A*02:06 [8]; [21]): 0.423 µM; IC50 (HLA-A*02:01 [16]; [21]): 1.59 µM
VQYRILPMII | 7.85 | ≥ 70 | 34.6 | ≥ 70 | 9.33 | – | 10.1 | – | – | – | – | – | – | IC50 (HLA-A*68:02 [2]; [21]): 21.4 µM; IC50 (HLA-A*23:01 [4]): 0.567 µM; IC50 (HLA-A*24:02 [5]): 1.61 µM; IC50 (HLA-A*02:03 [7]; [21]): 0.606 µM; IC50 (HLA-A*02:06 [8]; [21]): 0.395 µM
LQDIVNEHDI | ≥ 70 | ≥ 70 | ≥ 70 | ≥ 70 | 23.3 | ≥ 70 | 7.63 | – | – | – | – | – | – | IC50 (HLA-A*68:02 [2]; [21]): ≥ 70 µM; IC50 (HLA-A*24:02 [12]): ≥ 70 µM; IC50 (HLA-A*02:03 [19]): 38.2 µM; IC50 (HLA-A*02:06 [14]): 10.8 µM
ILRGTSFVYV | – | – | – | – | – | – | – | ≥ 70 | 4.77 | 0.0039 | 0.0022 | 1.36 | 0.083 | IC50 (HLA-A*68:02 [2]; [23]): 37.2 µM; IC50 (HLA-A*68:01 [9]; [23]): ≥ 70 µM
SLYADSPSV | – | – | – | – | – | – | – | ≥ 70 | 2.02 | 0.012 | 0.0034 | – | 0.883 | IC50 (HLA-A*68:02 [2]; [23]): 13.7 µM; IC50 (HLA-A*68:01 [9]; [23]): ≥ 70 µM; IC50 (HLA-A*31:01 [10]; [23]): 14.6 µM
